From a protein production outcome set (Wang et al. 2014)

Experiment: label from the status in PepcDB records

Sequence	protein production
PSPGGQMHAGISSFQQSNSSGTYGPQMSQYGPQGNYSRPPAYSGVPSASYSGPGPGMGISANNQMHGQGPSQPCGAVPLGRMPSAGMQNRPFPGNMSSMTPSSPGMSQQGGPGMGPPMPTVNRKAQEAAAAVMQAAANSAQSRQGSFPGMNQSGLMASSSPYSQPMNNSSSLMNTQAPPYSMAPAMVNSSAASVGLADMMSPGESKLPLPLKADGKEEGTPQPESKSKDSYSSQGISQPPTPGNLPVPSPMSPSSASISSFHGDESDSISSPGWPKTPSSPKSSSSTTTGEKITKVYELGNEPERKLWVDRYLTFMEERGSPVSSLPAVGKKPLDLFRLYVCVKEIGGLAQVNKNKKWRELATNLNVGTSSSAASSLKKQYIQYLFAFECKIERGEEPPPEVFSTGDTKKQPKLQPPSPANSGSLQGPQTPQSTGSNSMAEVPGDLKPPTPASTPHGQMTPMQGGRSSTISVHDPFSDVSDSSFPKRNSMTPNAPYQQGMSMPDVMGRMPYEPNKDPFGGMRKVPGSSEPFMTQGQMPNSSMQDMYNQSPSGAMSNLGMGQRQQFPYGASYDRRHEPYGQQYPGQGPPSGQPPYGGHQPGLYPQQPNYKRHMDGMYGPPAKRHEGDMYNMQYSSQQQEMYNQYGGSYSGPDRRPIQGQYPYPYSRERMQGPGQIQTHGIPLQMMGGPLQSSSSEGPQQNMWAARNDMPYPYQNRQGPGGPTQAPPYPGMNRTDDMMVPDQRINHESQWPSHVSQRQPYMSSSASMQPITRPPQPSYQTPPSLPNHISRAPSPASFQRSLENRMSPSKSPFLPSMKMQKVMPTVPTSQVTGPPPQPPPIRREITFPPGSVEASQPVLKQRRKITSKDIVTPEAWRVMMSLKSGLLAESTWALDTINILLYDDSTVATFNLSQLSGFLELLVEYFRKCLIDIFGILMEYEVGDPSQKALDHNAARKDDSQSLADDSGKEEEDAECIDDDEEDEEDEEEDSEKTESDEKSSIALTAPDAAADPKEKPKQASKFDKLPIKIVKKNNLFVVDRSDKLGRVQEFNSGLLHWQLGGGDTTEHIQTHFESKMEIPPRRRPPPPLSSAGRKKEQEGKGDSEEQQEKSIIATIDDVLSARPGALPEDANPGPQTESSKFPFGIQQAKSHRNIKLLEDEPRSRDETPLCTIAHWQDSLAKRCICVSNIVRSLSFVPGNDAEMSKHPGLVLILGKLILLHHEHPERKRAPQTYEKEEDEDKGVACSKDEWWWDCLEVLRDNTLVTLANISGQLDLSAYTESICLPILDGLLHWMVCPSAEAQDPFPTVGPNSVLSPQRLVLETLCKLSIQDNNVDLILATPPFSRQEKFYATLVRYVGDRKNPVCREMSMALLSNLAQGDALAARAIAVQKGSIGNLISFLEDGVTMAQYQQSQHNLMHMQPPPLEPPSVDMMCRAAKALLAMARVDENRSEFLLHEGRLLDISISAVLNSLVASVICDVLFQIGQL	not failed
MTSPSHASDRGGGDGDSVENQSPELRKDPVTNRWVIFSPARAKRPTDFKSKSPQNPNPKPSSCPFCIGREQECAPELFRVPDHDPNWKLRVIENLYPALSRNLETQSTQPETGTSRTIVGFGFHDVVIESPVHSIQLSDIDPVGIGDILIAYKKRINQIAQHDSINYIQVFKNQGASAGASMSHSHSQMMALPVVPPTVSSRLDGTKDYFEETGKCCLCEAKSKHFVIDESSHFVSVAPFAATYPFEIWIIPKDHSSHFHHLDDVKAVDLGGLLKLMLQKIAKQLNDPPYNYMIHTSPLKVTESQLPYTHWFLQIVPQLSGVGGFEIGTGCYINPVFPEDVAKVMREVSLT	not failed
MSTKTMKEKAVELLQKCEVVTLASVNKEGYPRPVPMSKIAAEGISTIWMSTGADSLKTIDFLSNPKAGLCFQEKGDSVALMGEVEVVTDEKLKQELWQDWFIEHFPGGPTDPGYVLLKFTANHATYWIEGTFIHKKLD	not failed
MPRITQEISYNCDYGDNTFNLAIDIGGTLAKVVFSPIHSNRLMFYTIETEKIDKFMELLHSIIKEHNNGCYRMTHIIATGGGAFKFYDLLYENFPQIKGISRFEEMEGLIHGLDFFIHEIPDEVFTYNDQDGERIIPTSSGTMDSKAIYPYLLVNIGSGVSILKVTEPNNFSRVGGSSLGGGTLWGLLSLITGAQTYDQMLDWAQEGDNSSVDMLVGDIYGTDYNKIGLKSSAIASSFGKVFQNRMTSNKSLENNENKLYSSHESIEKNNGQMFKNPDICKSLLFAISNNIGQIAYLQAKINNIQNIYFGGSYTRGHLTTMNTLSYAINFWSQGSKQAFFLKHEGYLGAMGAFLSASRHSSTKKTST	failed
MVQAQTRDQIVAAADELFYRQGFAQTSFVDISAAVGISRGNFYYHFKTKDEILAEVIRLRLARTAQMLADWQGTGDSPRARIASFIDLMIMNRAKITRYGCPVGSLCTELSKLDHAAQGQANGLFTLFRDWLQRQFAEAGCTTEAPALAMHLLARSQGAATLAQSFHDEGFLRSEVADMHRWLDNTLPMTT	not failed
MQFRSIIRIVGLLLALFSVTMLAPALVALLYRDGAGVPFVTTFFVLLFCGAMCWFPNRRHKHELKSRDGFLIVVLFWTVLGSAGSLPFLIADNPNISVTDAFFESFSALTTTGATVIVGLDELPKAILFYRQFLQWFGGMGIIVLAVAILPVLGIGGMQLYRAEIPGPVKDTKMTPRIAETAKALWYIYLSLTIACAVAFWLAGMTPFDAISHSFSTIAIGGFSTHDASMGYFDSYAINLITVVFLLISACNFTLHFAAFASGGVHPKYYWKDPEFRAFIFIQVLLFLVCFLLLLKHHSYTSPYDAFDQALFQTVSISTTAGFTTTGFADWPLFLPVLLLFSSFIGGCAGSTGGGMKVIRILLLTLQGARELKRLVHPRAVYTIKVGGSALPQRVVDAVWGFFSAYALVFVVCMLGLIATGMDELSAFSAVAATLNNLGPGLGEVALHFGDVNDKAKWVLIVSMLFGRLEIFTLLILLTPTFWRS	not failed
MKQEEDKFTGLPENAFRELKAGEVYNPLMSPSKNYPEVNFWSVTWGIAMAILFSAAAAYLGLKVGQVFEAAIPIAIIAVGVSGAAKRKNALGENVIIQSIGACSGVIVAGAIFTLPALYILQVKYPEMTVSFMQVFISSLLGGVLGILFLIPFRKYFVSDMHGKYPFPEATATTQVLVSGEKSGSQAKPLLMAGMIGGLYDFIVATFGWWNENFTTRVCGAGEMLAEKAKLVFKVNTGAAVLGLGYIVGLKYASIICAGSLAVWWIIIPGMSAIWGDSVLNAWNPEITSTVGMMSPEEIFKYYAKSIGIGGIAMAGVIGIIRSWGIIKSAVGLAAKEMGGKGNVEKNIVRTQRDLSMKIIAIGSILTLILIVLFFYFDIMQGNIVHTLVAIALVAGISFLFTTVAANAIAIVGTNPVSGMTLMTLILASVVMVAVGLKGPSGMVAALVMGGVVCTALSMAGGFITDLKIGYWLGSTPAKQETWKFLGTIVSAATVGGVMIILNKTYGFTSGALAAPQANAMAAVIEPLMSGVGAPWLLYGIGAILAIVLTFFKIPALAFALGMFIPLELNVPLVVGGAVNWYVTSRSKDTALNTERGEKGTLLASGFIAGGALMGVVSAAMRFGGINLVNEAWLNNTWSEVLALGAYALLILYFIKASMKVK	failed
MKKLFMSAVALLFAGALWAQENPLWMRHCAISPDGTTIAFTYKGDIFTVPVSGGKATQITTNPAFDTTPIWSPDSKQIAFASDRMGSMDVFIVSKDGGEPRRLTTFSGGETPVAFTDAGHILFTADIMPSTEDAGFPSNGQFQQIYQIPVSGGRPVMFSSMPMECISINKEGTILYQDKKGYEDYWRKHQKSPIARDIWMLRPGQTPRYEKQTTFIGEDREPVWAPDGKSFYYLSEENGTFNVYQRTPGSDTSKQVTHHKQHPVRFLSMASNGNLCYGFDGEIYTLAPGGKPQKVSVKILSDRNDKDLIRQIKTSGATEMAVSPDGKEVAFILRGDVYVTSVEYKTTKQVTNTPCQERGIDFAPDGRTLVYASERGGLWQLYTSTIVRKDEKQFTYATELKEERLTNSDIASFNPKYSPDGKEIAFLENRTAIRVINLKTKKVRTVMDAQYQYSYSDGDQWFEWSPDSKWILSEFIGIGGWNNKDIVLLNADGKGEMHNLTESGYSDGNAKWVLGGKAMVWFSDRAGYRSHGSWGAQYDAYIMFFDVDAYDRFRMNKEDLALLEEAEKAEKAEKEKAEKKKKENKKDDKKKDAKEKNKKDGDEEKKEEVKPLKFDLDNRFDRIVRLTVNSSFMGDAVLTPKGDKLYYLAAFESGYDLWEHDLKENSTKILLKGVGGGSLLPDKKGENIFMCTGGGMKKIEIAGSKTTPIAFESFFDYQPGGERAYIFDHVWQQVDDKFYVKDLQGVDWPLYKKSYEKFLPYINNNYDFAELLSEMLGELNASHTGARYSGAGGALATAALGVFYDDTYNGDGLKIKEIIEQGPFTLKKTDVKPGCIIEKVDGTLIKKGEDYFPLFEGKVGRKVLLSVYDPATKKRFEETVKAISYGAQRELLYKRWVERNRKKVEELSGGRLGYVHIKGMDSQSFRKMYSELLGRYRNKEAVVVDVRHNGGGWLHDDVVTLLSGKEYQRFVPRGQYIGSDPFNKWLKPSCMLVCEDNYSNAHGTPYVYKTLGIGKLVGTPVAGTMTAVWWERQIDPSLVFGIPQVGCMDMQGNYLENHTLEPDVLIYNEPAASLKGEDAQLKAAVDCLLKELPKK	failed
MKSKIFSTSLAFAFLLLITTVASAGQEIQITPYGERGLNPAIYDNKIAWLDKYINGSLHLRDLSTGKEIQITEDPWYSYLAVYNDKIVWGPGGQNIYLYNISTNHKTLLSIPESENQGSRDSLTIYGDKIVWRDQSGGYQDIYMYDLSTYNKTRITTNQSTKDPVIYGDKIVWQEDPSFGFGSSYHDIYVYNLSTSNKTRVTTNRSASSPNVYGDRIVYMESNNIYFHNLSTSLETQITFNGSRKDKLAIYGDRIVWQDDRNGNWDVYVYDLSEDKEIQITNDESDQLNPAIYGDKIVWEDYRNDRENMYYCSIYMYDFSAKPTMPFASFSANITSKSGNMPLTVLFTCNSTGGTPTSWYWDFGDGINSKHAQTATHTFKKPGTYDVSLTVTNFAGNSTLKKSNYITVTPQQAPIADFFSPEVYHANTYGGSVPTKTVSFVDNSTGSPTSWLWDFGDGNTSTEQNPTHVYDVEGGYTVNLTVKNVVGSNTTSKYGYVLVGLGDGSVAPEYFSSSVTSGDAPLKVTFHGGTGYANDWTFGDGSRQSVGENQTVEHTYLEPGQYTVSLSEYNVGGTAAITKYHYITVTGLTRPVASFTSEKVSVPMSLTIAFTDTSIGKPTSWYWDFGDGDSSTEQNPTHTYSAAGNYTVSLTASNENSTNSTFRVIDVFKTTGPFAYVISGNNISVIDTATDKVVDTIEIGSGLVGVAVNPTGTKVYVANEGNNTVSVIDTSISKVIATVNGLNSPYAIAITPDGKKAYVTNNSGAVFENGTVYVIDTGTSTVMNTVNVGSVPHGVAVSLDGAKVYVTNYYDISVIDTATNKVTATLNVGQYPDGIAVSPDGTKIYVTNGGSDNVSVIDTETNNVTATLPVGDNPVRVAVTPDGTKLYVTNYKGNTISVINTTTNTVTATIPGDGPYGVSITPDGKKVYVTNLGSDLSGKTVSVIDTAANTVIATVKVGSYPREVAVAPYGK	failed
MDTKHFLPLDFSTQVNSSLTSPTGRGSMAAPSLHPSLGPGIGSPGQLHSPISTLSSPINGMGPPFSVISSPMGPHSMSVPTTPTLGFSTGSPQLSSPMNPVSSSEDIKPPLGLNGVLKVPAHPSGNMASFTKHICAICGDRSSGKHYGVYSCEGCKGFFKRTVRKDLTYTCRDNKDCLIDKRQRNRCQYCRYQKCLAMGMKREAVQEERQRGKDRNENEVESTSSANEDMPVERILEAELAVEPKTETYVEANMGLNPSSPNDPVTNICQAADKQLFTLVEWAKRIPHFSELPLDDQVILLRAGWNELLIASFSHRSIAVKDGILLATGLHVHRNSAHSAGVGAIFDRVLTELVSKMRDMQMDKTELGCLRAIVLFNPDSKGLSNPAEVEALREKVYASLEAYCKHKYPEQPGRFAKLLLRLPALRSIGLKCLEHLFFFKLIGDTPIDTFLMEMLEAPHQMT	failed
DFPKINHGILYDEEKYKPFSQVPTGEVFYYSCEYNFVSPSKSFWTRITCAEEGWSPTPKCLRLCFFPFVENGHSESSGQTHLEGDTVQIICNTGYRLQNNENNISCVERGWSTPPKCRSTISAEKCGPPPPIDNGDITSFLLSVYAPGSSVEYQCQNLYQLEGNNQITCRNGQWSEPPKCLDPCVISQEIMEKYNIKLKWTNQQKLYSRTGDIVEFVCKSGYHPTKSHSFRAMCQNGKLVYPSCEEK	not failed
